assay: yeast display, Sf9 membrane polyspecificity reagent, FACS + sequencing; frameworks hold sequencing errors
Method in brief: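 Nanobodies came from a synthetic yeast display library in Saccharomyces cerevisiae BJ5465, induced with galactose for 36–48 hours and stained for 1 hour at 4 °C with 10% biotinylated, detergent-solubilized Sf9 membrane reagent. Cells were enriched on streptavidin microbeads and then FACS-sorted, with low and high (top ~1%) gates set on anti-HA fluorescence for expression and streptavidin fluorescence for reagent binding. Each polyreactivity label reflects the gate a clone came from. Genes were amplified by colony PCR, sequenced by MiSeq 2 × 250 and filtered by CDR length.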

| Sequence | polyreactivity (PSR sort gate) |
| --- | --- |
| QVKLVESAGGLVQAGASLRLSCAPSGITFKRYAMGWSSQQPGKQSELVAAITSGGSTHYADSVKGRFTISRDNAKNTVYLQMNTLKPEDTAVYYCATRRYKWGVRYDYWGQGTQVTVSS | high polyreactivity |
| QVKLVESAGGLVQAGGSLRLSCPASGRTFYRYVMGWSRQEPGKERELVAAITPGGSTYADSVKGRFTISRDNAKNTVYLQMNSLKPEDTAVYYCNKRKASSSGYNYWGQGTQVTVSS | low polyreactivity |
| QVKLVESCGGLVQAGGSLRLSCAASGFIFRNYAMGWYRQARGKERELVAAIDYSVGSTNYADSVKWRFTISRDNAKNTVYLQMNSLKPEDTAVYYCNAEYTWHRGYDYFGQGTQVTVSS | low polyreactivity |
| QVKLVESGGALVQAGGSLRLSCAASGSTFGWYAMGRYRQAPGKERELVAGISSGGASTYYADSVKGRFTISRDNAKNTFYLQMNSLKPEDSAVYYCAKDQIFRGYKTKFGYWGQGTQLTVSS | low polyreactivity |
| QVKLVESGGALVQAGGSLRLSCPASGRTFGQTAMGWYRQAPGKERELVAAITWSDDDTYYADSVKGRFTISRDNAKNTVYLQMNSLKPEDTAVYYCAATYPYRQYDYWGQGTQVTVSS | low polyreactivity |
| QVKLVESGGGIVKAGCSLRLSCGASGLTYNTYDMGWYRQAPGKERELVADISRGRGSTYYADSVKGRFTISRDNAKNTVYLQMHSLKPEDTAFYYCNAEKRSSYLMYDYWGQGTQVTVSS | high polyreactivity |
| QVKLVESGGGLDKAGGSLRLSCAASGLIFYLYPKGWYRQAPGQERELVAAISRSGDTTYYADSVKGRFTISRDNAKNTVYLQMNSLKPEDTAVYYCAADDYYKFDYWGQGTQVTVSS | low polyreactivity |
| QVKLVESGGGLVKAGGRLRLSCAASGRTFWYNAMGRYRPAPGKESELVAAINFSGGITYYADSVKGRFTISRDNAKNTVYLQMNSLKPEDTAVYYCNAVSRGRDAAGNYWGQGTQVTVSS | high polyreactivity |
| QVKLVESGGGLVKAGGSIRLSCAASGFTFGVYAKGSYRQAPAKERELVAAISTTVGSTYYADSVKGRFTISRDNAKNTVYLQMNSLKPEVTAVYYCSAEYTGYINYYIYEYWGQGTQVTVSS | low polyreactivity |
| QVKLVESGGGLVQAGGILRLSCAASGLIFTTYAMGWYRQAPGKERELVAVISGCGSTSYADSVKGRFTISRDNAKNTVYLQMNSLKPEDTAVYYCAADKPVSQGPIPGYTNDYWGQGTQVTVSS | low polyreactivity |
| QVKLVESGGGLVQAGGRLRLSCAASGSIFLLYPMGWYRQAPGKERELVAAISSGGSTYADSVKGRFTISRDNAKNTVYLLLNSLKPADTAVYYGAKVGGWYDPYTYGYSEYGYWGNGTQVTVSS | low polyreactivity |
| QVKLVESGGGLVQAGGSHRLSCPASGRIFYPYAMGWYRQAPGKESELVAAISWSTVSTYYADSVKGRFTISRDNAKNNVYLQMNSLKPEDTAVYYCAARLYFSSSLRCVDFWGQGTQVTVSS | high polyreactivity |
| QVKLVESGGGLVQAGGSLLLSCAASVLTFYRYVIVCYRQEPGKERELVAAITKSGGSTYYADSVKGRFTISRDNAKNTVYLQMNSLKPEDTAVYYCAVRSYWRGDYWGQGTQVTVSS | high polyreactivity |
| QVKLVESGGGLVQAGGSLRLICAASGNTFGPYDMGWYRQAPGKERQLVAGITSGGSTYYADSVKGSFTITRDNAKNTVYLQMNSLKPEDTAVYYCAADYYLWVYWYDYWGQGTQVTVSS | high polyreactivity |
| QVKLVESGGGLVQAGGSLRLSCAASGFTFANYAMGWYRQAPGKEREFVAAITKGGGSTNYADSVKGRFTISRDNAKNTVYLQMNSLKPEDTAVYYCNADYFVWYIGRVFSRYGYWGQGTQVTVSS | low polyreactivity |
| QVKLVESGGGLVQAGGSLRLSCAASGGIFTDYTMGWSRQAPGKERELVAAITWTGGSTYYADSVKGRFTISRYNAKNTVYLQMNSLKPEDTAVYYCSADDYWVNLDYWGQGTQVNVSS | low polyreactivity |
| QVKLVESGGGLVQAGGSLRLSCAASGLIFQKYAMGWYRQPPGKERELVAAISGGGRTYYADSVKGRFTISRDNSKNTVYLQMNSMKPEDTAVYYCAVYWYYLGYYYYYDFDYWGQGTQVTVSS | high polyreactivity |
| QVKLVESGGGLVQAGGSLRLSCAASGRICLSYTMGWYRQAPGKERELVATIDSGVSTNYADSVKGRFTITRDNAKNTVYVQMNSLKPEDTAVYYGNADGFYSSHGYDYWGQGTQVTVSS | low polyreactivity |
| QVKLVESGGGLVQAGGSLRLSCAASGRTFGVYAMGWYRQAPGKEREFVATITSRGGRTYYADSVKGRFTISRDNAKNTVYLQMNSLKPEDTAVYYCAVGRGSLRGRTDGGYWGQGTQVTVSS | high polyreactivity |
| QVKLVESGGGLVQAGGSLRLSCAASGRTISGNAMGWYRQAPGKERELVATISGRGGSTYYADSVKGSFTISRDNAKNTVYLQMTSLKPEDTAVYYCAKRLYSRRPLMDSWGQGTQVTVSS | high polyreactivity |
| QVKLVESGGGLVQAGGSLRLSCAASGRTLGGYAMRWYRQAPGKERQLVAAITRRGGSRYYADTVKGRFTISRDNAKNTVYLQMNSLKPEDSAVYYCAARWYARSLTRFNYWGKGTQVTVSS | high polyreactivity |
| QVKLVESGGGLVQAGGSLRLSCAASGSIFSRNTIGCDRQEPGKERELVAGISSSGSRTYYADSVKGRFTISRDNAKNTVYLQMNSLIPEDTAVYYCAAEHQRSRGRRYYIGYDYWGQGTQVTVSS | low polyreactivity |

| Sequence | polyreactivity (PSR sort gate) |
| --- | --- |
| QVKLVESGGGLVQAGGSLRLSCAASGSIYWYAMGWYRQAPGKERELVAAISRRGGSTYYADSVKGRFTISRDNAKNTVYLQMNSLKPEDTAVYYCAVGIYGEYDYWGQGTQVTVSS | high polyreactivity |
| QVKLVESGGGLVQAGGSLRLSCAASGSTFGINARGWYRQAPGKERELVAAITFISGSTNYADSVKGRFTISRDNAKNTVYLQMNSLKPEDTAVYYCAARCTSTPVYSRYGYWGQGTQVTVSS | low polyreactivity |
| QVKLVESGGGLVQAGGSLRLSCAASGSTFLIYAMGWYRQAPGKERELVAAITVSGGDTYYADSVKGRFTISRDNAKNTVYLQMNSLKPEDTAVYYCAAEGGNDYSSVDAGISYDYWGQGTQVTVSS | low polyreactivity |
| QVKLVESGGGLVQAGGSLRLSCAASGSTFVVNAMGCYRQAPGKERELVAAITQSGGSTFYADSVKGRFTISRDNAKNTVYLQMNSLKPEDTAVYYCAADTYYYYWFACYTEYDYWGQGTQVTVSS | low polyreactivity |
| QVKLVESGGGLVQAGGSLRLSCAAYGSTFAYNAMGWYRQAPGKERELVADISWSGGSTYYADSVKGRFTISRDNAKNTVYLQMNSLNPEDTAVYYCATEYSEGITQFFWATDYDYWGQGSQVTVSS | high polyreactivity |
| QVKLVESGGGLVQAGGSLRLSCADSGRTFYYNTMGWYRQAPGKERELVADITISGGSTYYADSVKGRFTISRDNAKNTVYLQMKSLKPEDTAVYYCAAGWFSLSTAYYHKRVGYNYWGQGTQVTVSS | high polyreactivity |
| QVKLVESGGGLVQAGGSLRLSCAPSARIFDIYPLGWSRQAPGKERELVAGITSVGSTNYADSVKGRFTISRDNAKYTVYLQMTSLNPEDTAVYDCASVTSVHSEVDYWGQGTQVTVSS | low polyreactivity |
| QVKLVESGGGLVQAGGSLRLSCHASGFTFPYYAMGWYRQAPGKERELVAAISQIGDRTYYADSVKGRFTISRDNAKNTVYLQMNSLKPEDTAVYYCNGAGKVRKYGYWGQGTQVTVSS | high polyreactivity |
| QVKLVESGGGLVQAGGSLSLSCDASGNTFVRNVMGSYRQEPGKERELLAAIRSGTRTYYADSVKGRFTISRDNAKNTVYLQINSLKPEDTAVYYCATYRTYNSYRYDYWGQGTQVTVSS | high polyreactivity |
| QVKLVESGGGLVQSGGSLRLRCAASGSTITGYAMGWYRQAPRKERDLVAAITYTGTSTYYADTVKGRYTISRDNAKNTVYLEMNSLNPEDTAVYYCAARLAWWKTYIRYYYWGKGTQVTVSS | high polyreactivity |
| QVKLVESGGRLVQAGGSLRLSCAASGIIFFSYAMRSYRQAPGKERELVAAISGTGGNTYYADSVKGRFTISRDNAKNTVYFQMNSLKPEDTAVYYCAADQEWYYYFVSFAYYILDYWGQGTEVTVSS | high polyreactivity |
| QVKLVESGGRLVQAGGSLRLTCAASGFIFLNYSMGWYRQAHGKERELVAAISRSGGRTYYADSVTGRFTISRDYAKNTVYLQMNSLKPEDPAVYYCAVYIYGIVFYFTYMYVNCYDYWGQGTQVTVSS | high polyreactivity |
| QVKLVESGGVLVQAGGSLRLSCAASGSIFVYNAMGWYRQAPGKERELVAAISQRGGSTYYADSVKGRFTISRDNAKNSVYLQMNSLKPEDTAVYYCAAGPGDSGDDYWGQGSQVTVSS | low polyreactivity |
| QVKLVESGRGLVQAGGSLRISCDASGSIFYYYAMGWYRQAPGKERELVAAINGGDTNYADSVKGRFTISRDNAKNTVYLQMTSLKPEDTAVYYCAAEGVTVEWDYDYWGQATQVTVSS | low polyreactivity |
| QVKLVESGRGLVQAGGSLRLSCAASGFTFRYYGMGWYRQAPGKERELVASITASGVSTSYADSVKGRFTISRDNAKNTVYLQMNSLKPEDTAVYYCNAVVGAWSLFDYWGQGTQVTVSS | high polyreactivity |
| QVKLVESGRGLVQAGGSLRLSCAASGYKCIVYTMGWYRQAPGKERELVAAISSGGITAYADSVKGRITISRDNAKNTVYLQMNSLKPEYTAVYYWGQGTQVTVSS | low polyreactivity |
| QVKLVESRGGLVQAGGSLRLSCAASGFTFFLYTMGWYRQAPGKERELVATITSAGTTNYADSVKGRFTISRDNAKNTVYLQMNSLIPEDTAVYYCNADRWEYDYWGQGTQVTVSS | low polyreactivity |
| QVKLVQSGGGLVEAGGSLLLSCAASGRIFDQYAMGWYRPAPGKERELVAAITTSGDNTYYADSVKGRFTISRDNAKNTVYLQMNSLKPEDTAVYYCKVDIDTFWYGSDYWGQVTQVTVSS | high polyreactivity |
| QVLLQESGGALVQAGGSLRLSCAASGTISTDIRMGWYRLAPGKEPEFVASIDGCSTTYYADSVKVRFTISRDNEKNTVYLQMNSLKPEDTAMYYCAAREATEFYLYYWGQGTQVTVSS | low polyreactivity |
| QVLLQESGGGLVQAGGSLRLGCAASGTISPAYYMGRSHQAPGKEREFVAAITYGTNTYYADSVKGRFTISRDNAKNTVYLQMNSLKPEDTAVYYCSATAGYNGAHDYWGQGTQVTVSS | low polyreactivity |
| QVLLQESGGGLVQAGGSLRLSCAASGSIFLFYTMGWNRQAPVKEREFVAGITLGTTTYNADSVKGRFTISRDNVKNTVYLQKNSLKPEDTAVYYCAVAVGHYTEFWYWGQGTQVTMSS | high polyreactivity |

Source: the nanobody polyreactivity screen of Harvey et al. (2022)
